From patent US20210070876A1 (LES LABORATOIRES SERVIER, published 2021)

Experiments:
[1] = target: T1, His-tagged cynomolgus CD73 ECD (cynomolgus monkey (Macaca fascicularis)); assay: SPR, mAb captured, His-tagged CD73 ECD injected
T1 chain: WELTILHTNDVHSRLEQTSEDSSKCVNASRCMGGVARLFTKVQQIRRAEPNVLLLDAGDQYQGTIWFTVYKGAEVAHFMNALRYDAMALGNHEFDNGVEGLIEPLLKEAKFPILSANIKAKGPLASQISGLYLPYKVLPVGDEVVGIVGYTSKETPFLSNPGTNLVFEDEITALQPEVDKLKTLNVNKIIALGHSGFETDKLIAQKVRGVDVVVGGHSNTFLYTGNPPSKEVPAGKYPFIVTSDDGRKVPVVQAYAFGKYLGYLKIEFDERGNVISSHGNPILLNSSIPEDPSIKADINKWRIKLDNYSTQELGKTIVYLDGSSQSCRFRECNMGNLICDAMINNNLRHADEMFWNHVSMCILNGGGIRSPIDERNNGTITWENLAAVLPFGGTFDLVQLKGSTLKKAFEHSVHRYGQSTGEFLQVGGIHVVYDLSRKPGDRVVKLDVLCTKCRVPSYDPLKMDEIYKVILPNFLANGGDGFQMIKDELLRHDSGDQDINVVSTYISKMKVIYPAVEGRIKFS
Protocol: Kinetic binding analysis of anti-CD73 mAbs and Fab fragments was performed by Surface Plasmon Resonance (SPR), using a Continuous Flow Microspotter (CFM, Wasatch Microfluidics, Salt Lake City, US) combined with an IBIS MX96 SPR instrument (IBIS Technologies, The Netherlands). CD73 cDNAs coding for the extracellular domains of human and cynomolgus CD73 were synthesized and each cloned into a vector containing a CMV promoter and either a C-terminal 6× histidine sequence (SEQ ID NO: 45) for His-tagged CD73 ECD, or a human IgG1 Fc sequence (AA P101-K330), resulting in fusion of IgG1 Fc C-terminally to the cloned CD73 ECD. The His-tagged and Fc-fusion constructs were transiently expressed using an ExpiCHO™ expression system and purified either by standard Ni-NTA chromatography or standard MabSelect™ SuRe™ procedures, respectively. Anti-CD73 Fab fragments were generated by digesting full-length IgG1 antibodies with GingisKHAN enzyme, using a kit provided by Genovis (Sweden). Affinities of Fab fragments were measured by capturing Fc-tagged antigens on a G-a-hu-IgG Fc SensEye® for 15 minutes using the CFM. After spotting, the SensEye® was positioned in the IBIS MX96 biosensor and immobilized antigens were fixed by SensEye FixIt kit. Kinetic analysis was performed by injecting monomeric Fab fragments at increasing concentrations from 0.8 nM to 300 nM. After each cycle of Fab fragment injection, the surface was regenerated by 10 mM glycine pH 3, 10% glycerol. Fab association was performed for 15 minutes and antigen dissociation was performed for 15 minutes. Affinities of full-length monoclonal antibodies (mAbs) were measured by capturing mAbs on a G-a-hu-IgG Fc SensEye® (Ssens BV, The Netherlands) for 15 minutes using a Continuous Flow Microspotter (CFM, Wasatch Microfluidics, Salt Lake City, US). After spotting, the SensEye was docked in the IBIS MX96 and spotted mAbs were fixed by SensEye FixIt kit (Ssens BV, The Netherlands). Kinetic analysis was performed by applying a kinetic titration series injecting increasing concentrations of His-tagged antigens from 0.16 nM to 10 nM as 2-fold dilutions. The surface was regenerated before the next cycle of cynomolgus antigen injections by 100 mM H₃PO₄, pH 3. MAb association was performed for 15 minutes and antigen dissociation was performed for 45 minutes.

[2] = target: T2, cynomolgus CD73 expressed on cells (cynomolgus monkey (Macaca fascicularis), UniProt A0A2K5V5U7 27-549); assay: flow cytometry on CHO-S cells transiently expressing cynomolgus CD73, AF647 anti-human IgG (H+L) secondary, GeoMean
T2 construct: whole, on cells; also called cynomolgus CD73 on CHO-S cells; CD73 on Cynom-K1 cells
T2 sequence: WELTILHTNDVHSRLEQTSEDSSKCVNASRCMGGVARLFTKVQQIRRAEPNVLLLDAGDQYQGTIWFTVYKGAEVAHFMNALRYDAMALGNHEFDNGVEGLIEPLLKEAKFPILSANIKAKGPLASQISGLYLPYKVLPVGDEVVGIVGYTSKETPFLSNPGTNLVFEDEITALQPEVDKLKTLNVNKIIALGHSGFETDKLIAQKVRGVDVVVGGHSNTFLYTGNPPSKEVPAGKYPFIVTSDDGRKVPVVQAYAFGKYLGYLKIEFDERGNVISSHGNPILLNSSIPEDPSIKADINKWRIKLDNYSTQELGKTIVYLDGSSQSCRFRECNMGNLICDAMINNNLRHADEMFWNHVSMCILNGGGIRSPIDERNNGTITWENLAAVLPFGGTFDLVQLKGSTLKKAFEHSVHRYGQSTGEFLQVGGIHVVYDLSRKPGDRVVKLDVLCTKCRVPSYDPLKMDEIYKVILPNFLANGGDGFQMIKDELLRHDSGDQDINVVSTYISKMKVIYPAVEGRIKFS
Protocol: The anti-CD73 antibodies were incubated with the hamster CHO-S cell line transiently expressing human or cynomolgus CD73 for 30 minutes at 4° C. The cells were washed twice and subsequently incubated for an additional 20 minutes with AF647-conjugated secondary anti-human IgG (H+L) antibody. After the washing step, antibody binding was detected using the high-throughput flow cytometer iQue Screener PLUS (Sartorius) measuring the GeoMean of AF647 signal in each well. Every concentration was assayed in triplicate and a 12-point titration curve was generated for each antibody.

[3] = target: T3, His-tagged human CD73 ECD (human, UniProt P21589 27-549); assay: SEC-MALS, mAb:CD73 0.5:1
T3 construct: runs as a homodimer of about 124-125 kDa in SEC-MALS; also called CD73-His; CD73-His ECD antigen
T3 sequence: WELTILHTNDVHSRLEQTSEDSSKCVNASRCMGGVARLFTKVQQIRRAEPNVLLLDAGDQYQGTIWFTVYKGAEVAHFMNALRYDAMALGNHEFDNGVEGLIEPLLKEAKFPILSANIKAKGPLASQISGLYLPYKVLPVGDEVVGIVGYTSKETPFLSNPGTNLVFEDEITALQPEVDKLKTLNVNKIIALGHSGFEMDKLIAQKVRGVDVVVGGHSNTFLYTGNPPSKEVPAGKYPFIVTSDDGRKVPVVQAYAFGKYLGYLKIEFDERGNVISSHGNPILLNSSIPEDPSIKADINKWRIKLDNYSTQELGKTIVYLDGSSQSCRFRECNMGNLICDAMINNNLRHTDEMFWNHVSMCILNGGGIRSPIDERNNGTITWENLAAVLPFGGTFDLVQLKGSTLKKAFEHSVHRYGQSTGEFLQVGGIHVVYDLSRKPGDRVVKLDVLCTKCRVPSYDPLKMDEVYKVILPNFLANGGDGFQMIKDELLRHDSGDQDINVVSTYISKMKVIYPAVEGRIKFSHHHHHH
Protocol: Anti-CD73 antibodies and His-tagged CD73 were analyzed in different ratios as well as individually to analyze the size of complexes formed between CD73 homodimer and anti-CD73 antibodies. Samples were prepared by mixing […] of CD73-His with 900, 450, 90 or 0 μmol of antibody diluted into PBS, pH 7.4. Samples were incubated for 30 min at room temperature followed by separation using a UHPLC UltiMate 3000 (Thermo Scientific) and SEC X-Bridge column (Waters) at a flow rate of 1.2 mL/min. Sample running buffer was 0.01 M Citrate, 250 mM L-Arginine.HCl, pH 6.0. Following HPLC separation, all samples were analyzed using a MiniDAWN TREOS MALS detector (Wyatt) and Optilab T-rEX refractive index detector (Wyatt). Data plots were generated using Graph Pad Prism.

B1: antibody 21127 (antibody, human IgG1, kappa, L234A L235A, V domains shown)
VH: EVQLVESGGGLVQPGRSLRLSCAASGFTFDDFAMHWVRQAPGKGLEWVSGISWNSGNIGYADSVKGRFTISRDNAKNSLYLQMNSLRAEDTALYYCAKDKSGSPYYYYGMDVWGQGTMVTVSS
VL: DIQMTQSPSSVSASVGDRVTITCRATQGISRRLAWYQQKPGKAPKLLIYAASSLQSGVPSRFSGSGSGTDFTLTISSLQPEDFATYYCQQANSFPLTFGGGTKVEIKR
notes: Fully human IgG1-LALA (L234A/L235A), kappa
[1]
  Kd: 0.24 nM
[2]
  EC50 (read off the curve): ~4 ng/mL
[3]
  molecular mass of complex, Peak 2 (MW, kDa): 277 kDa
